Experimental data reported in the DeepSol protein solubility set.

Assay: soluble on expression in E. coli; label from the status in PepcDB or PDB records

| Sequence | soluble on expression in E. coli |
| --- | --- |
| MSLLVMKCSKCSAEAIYYAKYNGLYLCRDHFNEMIEGRVKKEIRKQVEFHGDDVTISVALSGGKDSSVTLFLLHKILGNRKNMKIKAFTVDEGIDGYRPSGLESAKRLCTSLGIDHETISFYDSYGLTLDSIVKTNPVKIPCAYCGPLRRKLINEMADKQDADYVALGLNLDDYSQSILMNVAKGDFDRFIRMSPQTDRKVGLVRRIAPLRTILEKEVVLYAVTNDIPFDSSWCPYYSRAQRNVFREVVNKLSEENPSTKFAILKFFDRVRENITTGHEEVKLKRCKICGAPTERDVCTACSSLQEVNEMMAEHEGHHHHHH | soluble |
| MLKNLRIGKFEPEEEYVHFTYSIKNSEREKSKELIKEYRTLLQKAIDYLWSLTKIQVRKKNGNYKITLPKKKEVYKPLREELEKINHLASHYVDKAINDAFSILKSWRKRAIKGRASIEKPRVKKAYVRIKTTLRKVVGESVRITVRPHEYITFPWSKSWFSRRVRELELGEPIIKEEKVYLPFRYKLPWVTPVNFLAIDSNLYTLDAYDGEKFVTISLKQLYSLKYSMEVKRAKVQSFASKHTKRGRELMRKYSHRERNRVLDFVHKFVNALLDLYPMTFFAVEKLDKEGMFVDANESLSRKISRTVWRSIHRVLKYKAPLYGSFVKEVNPYLTSRSCPRCGFVSRKVGKTFECERCGFKLDRQLNASLNIYLKMCGFPHIREIARVWVGVIPLMGRRGMNVRDFGEAQGLRINIKYHEIPLEHHHHHH | not soluble |
| MFKDFFNRTKKKKYLTVQDSKNNDVPAGIMTKCPKCKKIMYTKELAENLNVCFNCDHHIALTAYKRIEAISDEGSFTEFDKGMTSANPLDFPSYLEKIEKDQQKTGLKEAVVTGTAQLDGMKFGVAVMDSRFRMGSMGSVIGEKICRIIDYCTENRLPFILFSASGGARMQEGIISLMQMGKTSVSLKRHSDAGLLYISYLTHPTTGGVSASFASVGDINLSEPKALIGFAGRRVIEQTINEKLPDDFQTAEFLLEHGQLDKVVHRNNMRQTLSEILKIHQEVTK | not soluble |
| MMQPVIRKNHMDIAWHEYTDENGADIPVTQASLTEKASIIGRVGIMFLSCGTGAWRVRSSMNTLAEIMGITCTADIGLMSIEYTCFDGEEGFTQSLCLTNTGVNTSKLNRLEHFIREFEIDGKDMSGEELHTLLDDIER | not soluble |
| MIDTFERTGPLMEASSYPAWAQQLINDCSPAKARVVEHELYQQMRDAKLSPQIMRQYLIGGWPVVEQFAVYMAKNLTKTRFGRHPGEDMARRWLMRNIRVELNHADYWVNWCAAHDVTLEDLHDQRVAPELHALSHWCWQTSSSDSLAVAMAATNYAIEGATGEWSAVVCSTGVYAEAFAEETRKKSMKWLKMHAQYDDAHPWEALEIICTLVGNKPSLQLQAELRQAVTKSYDYMYLFLERCIQLDKVKSPRGRVAALEM | soluble |
| MGSDKIHHHHHHLSIARETGSILLIPSTTTLRRAFDFETTFNDSIQFVGEDLSRQLAEDLNASKITLTSCCAYRNLSTILFNDSRIIERIDGYFQNFRYFHPDSQKIVKKLFTFMDPVRKRVSFWNIIYWNIHPTNHRKKPEKSTVSIFSFVTFQLRVDEFLENVGISLTVRNARVIETNVANDDQALELPEEDAFAKTMMVGVHIRHGMDISMNSRNRIHGHVDTPIEYYKRAIQQISKIYENVAFIICSDNVAWARRNLKLGKETLHFFCPGPREVDMAILKSCDSVIISTGTFGWWSAYLNVNASPDVYYYKHWPAPGSVMEKMTNKTEYF | not soluble |
| AHHHHHHGSGNNTEVIKMVEVRLENLTKKFGDFTAVNSLNLTIKDGEFLVLLGPSGCGKTTTLRMIAGLEEPTSGKIYFGDRDVTYLPPKDRNVSMVFQSYAVWPHMTVYENIAFPLKIKKYPKDEIERRVKWAAELLQIEELLDRYPAQLSGGQRQRVAVARAIVVEPDVLLMDEPLSNLDAKLRVAMRAEIKKLQQKLKVTTIYVTHDQVEAMTMGDRIAVMNRGKLLQVGSPTEVYLNPNSVFVATFIGAPEMNILEVSVGEGYLEGEGFKIELPDDIMEALRNYIGKTVLFGIRPEHMVIEGISELAHMRRTAKIKGVVDFVEALGTDTIVHVRFEESIIKVKLPGHIPLEIGKEVSVLIDLDKIHIFDKNSEKAII | soluble |
